Target: T1, MHCII (I-A^b) of murine bone marrow-derived dendritic cells (Mus musculus, UniProt P14434+P14483)
T1 construct: immunoprecipitation of mature peptide-MHCII complexes with monoclonal Y3P antibody; endogenous in cells; host or cells: primary BMDCs from C57/BL6 (WT) mice, exposed to live L. monocytogenes EGDe
T1 sequence (P14434 24-256): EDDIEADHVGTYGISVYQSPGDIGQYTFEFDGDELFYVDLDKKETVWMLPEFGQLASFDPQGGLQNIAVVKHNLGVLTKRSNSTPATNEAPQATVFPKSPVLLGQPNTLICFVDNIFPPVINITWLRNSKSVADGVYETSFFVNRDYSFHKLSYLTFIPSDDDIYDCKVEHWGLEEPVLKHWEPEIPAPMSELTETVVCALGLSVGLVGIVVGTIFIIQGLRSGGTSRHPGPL
T1 sequence (P14483 28-265): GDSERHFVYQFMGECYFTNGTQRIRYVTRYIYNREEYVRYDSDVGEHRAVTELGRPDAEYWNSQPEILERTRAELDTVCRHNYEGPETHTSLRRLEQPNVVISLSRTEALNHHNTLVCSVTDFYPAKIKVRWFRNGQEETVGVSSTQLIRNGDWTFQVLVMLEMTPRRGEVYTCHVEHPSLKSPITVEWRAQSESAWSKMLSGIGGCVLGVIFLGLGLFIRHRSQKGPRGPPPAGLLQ
Assay: MHCII peptidomics of BMDCs exposed to live Listeria (iTRAQ LC-MS/MS of MHCII-associated peptides)
Format: cell-based
Details: Listeria peptide found by MHCII peptidomics that matches the BOTA prediction
Description: To validate BOTA, Applicants tested its performance in predicting MHCII-restricted epitopes from Listeria monocytogenes, one of the most common foodborne pathogens associated with a relatively high mortality rate (Scallan et al., 2011). Despite the epidemiological impact of listeriosis, the number of experimentally validated CD4 T cell epitopes encoded within the Listeria genome is limited. Thus, Applicants first sought to identify MHCII-associated peptides in BMDCs exposed to live Listeria by peptidomics. In these experiments, primary BMDCs were exposed to live L. monocytogenes for 10 minutes or 6 hours prior to immunoprecipitation of mature peptide-MHCII complexes with monoclonal Y3P antibody (Janeway et al., 1984). Associated peptides from biological replicates of the 10-minute and 6-hour timepoints were analyzed using mass spectrometry (LC-MS/MS) (FIGS. 9A and B).
Immuno-affinity purification of MHCII complexes. Bone marrow was harvested from C57/BL6 (WT), Atg16l1^f/f×CD11c-Cre (Conway et al., 2013b), and Atg5^f/f×CD11c-Cre (Conway et al., 2013a) mice. BMDCs were differentiated from bone marrow for seven days in antibiotic-free DMEM supplemented with 20% FBS and GM-CSF (2% conditioned TOPO medium). In parallel, L. monocytogenes strain EGDe (ATCC BA-679) was cultured overnight in BHI medium, washed in PBS, and cocultured with BMDCs at an MOI of approximately 100:1 for 30 minutes. Tissue culture dishes containing cocultures were washed in PBS and cultured for an additional 10 minutes or 6 hours in DC media containing gentamicin (30 μg/ml). BMDCs were then harvested by scraping, washed in PBS, and lysed in 1% NP-40, 4 mM MgCl2, 6 μg/ml DNaseI from bovine pancreas (Sigma Aldrich), and PBS pH 7.4 at 250×10^6 cells/4 ml lysis buffer/sample. Clarified lysates were subjected to immunoprecipitation overnight at 4° C. with gentle rotation. Immunoprecipitation was performed with NHS Mag Sepharose (GE Healthcare) covalently coupled to anti-H2-IA (clone Y3P (Janeway et al., 1984)). Each sample contained 130 μl packed beads and approximately 650 μg antibody. Beads were then washed twice in PBS containing 0.1% NP-40 and three times in PBS.
MHC-peptide elution and desalting. Peptides were eluted from MHC complexes and desalted on in-house-built Empore C18 StageTips (3M, 2315) as described previously (Rappsilber et al., 2007). Sample loading, washes, and elution were performed on a tabletop centrifuge at a maximum speed of 2,000-3,500×g. Briefly, StageTips were equilibrated with 2×100 μL washes of methanol, 2×50 μL washes of 50% acetonitrile/0.1% formic acid (FA), and 2×100 μL washes of 1% FA. In a tube, the dried beads from MHC-associated peptide IPs were thawed at 4° C., reconstituted in 50 μL 3% ACN/5% FA, and loaded onto StageTips. The beads were washed with 50 μL 1% FA, and peptides were further eluted using two rounds of 5-minute incubations in 10% acetic acid. The combined wash and elution volumes were combined and loaded onto StageTips. The tubes containing the IP beads were washed again with 50 μL 1% FA, and this volume was also loaded onto StageTips. Peptides were washed twice on the StageTip with 100 μL 1% FA. Peptides were eluted using a step gradient of 20 μL 20% ACN/0.1% FA, 20 μL 40% ACN/0.1% FA, and 20 μL 60% ACN/0.1% FA. Step elutions were combined and dried to completion.
iTRAQ 4-plex labeling for quantitative proteomics.

Substance | Peptidomics Hit
15029 (ETQHYYGLPVADSAIDRGPL; Listeria sp) [compound 15029] | ...APGQETQHYYGLPVADSAIDR.........
15028 (ERWNEKYAQAYPNVSAKID; Listeria sp) [compound 15028] | ..........[…]..........
15031 (DTTVKFTLPTVAPAFENTIKT; Listeria sp) [compound 15031] | AVDDTTVKFTLPTVAPAFENT
15032 (EKVVATPVSNVSTSSATSS; Listeria sp) [compound 15032] | GTKEKVVATPVSNVSTSSA
15033 (INQAYTGSTALSDGLNKM; Listeria sp) [compound 15033] | GGINQAYTGSTALSDGLN
15034 (GIAVTAFAAPTIASASTVVV; Listeria sp) [compound 15034] | IAVTAFAAPTIASA
15036 (TVRAKSKTYPVYINEFALED; Listeria sp) [compound 15036] | TVRAKSKTYPVYInEFALE
15030 (FRYVFDTAKATAASSYPGS; Listeria sp) [compound 15030] | ......ADFRYVFDTAKATAASSYPG.......

Same assay, conditions: MHCII-bound peptide abundance, BMDCs, 6 hr versus 10 min after Listeria exposure

Substance | logFC (Log2 Fold Change Listeria 6 hr versus 10 min)
14995 (EVEDLNQPLAAHVNYE; Listeria sp) [compound 14995] | 0.1526
14982 (VERWNEKYAQAYPNVS; Listeria sp) [compound 14982] | 0.2849
15017 (EVVYHNMKQDLE; Listeria sp) [compound 15017] | -0.1708
15026 (ESVYLSAQKENPRLFAKIETF; Listeria sp) [compound 15026] | 0.5951
15027 (RDNYLFQLYEATGTPIHPMSPF; Listeria sp) [compound 15027] | -0.05049
15020 (GLLMAKKYKMNLTIVIVN; Listeria sp) [compound 15020] | -0.6291
15022 (MNRVMLPLQQMGAKMHGK; Listeria sp) [compound 15022] | 0.1447
14985 (VWTKPNKIEGAQKISALSTY; Listeria sp) [compound 14985] | -0.2625
15023 (VMASDYTRGLSIRAIELVFENL; Listeria sp) [compound 15023] | 0.2507
14980 (WNEKYAQAYPNVS; Listeria sp) [compound 14980] | 1.377
15018 (DGLKAGEHFFAAGKDWPDAIYANGDEVAAGVMYH; Listeria sp) [compound 15018] | -0.4271
15024 (YMEKHSVSRLVGAPP; Listeria sp) [compound 15024] | -0.4422
15025 (KTASGIVLPDSAKEKPQSGKIVAVGSGRVLD; Listeria sp) [compound 15025] | -0.4963
15016 (SNVNHVLDIGYGGGSNVKN; Listeria sp) [compound 15016] | 0.227
14983 (ERWNEKYAQAYPNVS; Listeria sp) [compound 14983] | 0.2069
14981 (WNEKYAQAYPNVSAKI; Listeria sp) [compound 14981] | 1.202
15019 (EILLQKPNGERLTSFITL; Listeria sp) [compound 15019] | -0.04842

Test system: ovarian carcinoma patients
Assay: not given
Details: poly-ICLC in combination with a NY-ESO-1 peptide vaccine (in addition to Montanide), phase 1; cited from earlier work

Substance | patients showing induction of CD4+ and CD8+ T cell, as well as antibody responses to the peptide [%]
Polyinosinic-Polycytidylic Acid-poly-L-lysine Carboxymethylcellulose [poly-ICLC] | > 90

Test system: CD4 T cells
Assay: IFNγ ELISPOT of splenocytes from Listeria-infected mice restimulated with synthetic peptides
Format: in vivo, mouse
Details: seven days after i.p. Listeria infection; splenocytes restimulated with 100 nM peptide
Description: FIG. 10—BOTA and MHCII peptidomics accurately predict immunodominance in vivo. […] At day 7, splenocytes were harvested and restimulated with the indicated peptides for quantification of the T cell response by IFNγ ELISPOT. Data represent the mean number of spots per 1×10^5 CD4 T cells±sd for n=6 mice.
Given that MHCII peptidomics and BOTA successfully identified Listeria peptides and features associated with efficient antigen presentation, Applicants sought to measure T cell responses to these epitopes in vivo. To quantify the CD4 T cell response directed to the top eight candidate Listeria epitopes, mice were sacrificed seven days after intraperitoneal (i.p.) infection with Listeria. T cells were restimulated in vitro with synthetic peptides, and IFN-γ responses were enumerated by ELISPOT. […] The remaining four epitopes elicited weaker responses near the limit of detection for ELISPOT (FIG. 10B).
Listeria infection and ELISPOT. L. monocytogenes strain EGDe (ATCC BA-679) was grown to log phase in BHI, washed in PBS, and used to inoculate mice by i.p. injection with a dose of 1×10^4 CFU/200 μl/mouse. Seven days after infection, spleens were harvested, red blood cells were lysed, and single cell suspensions were replated at 2.5×10^5/200 μl/well on 96-well ELISPOT plates (Millipore MAIPS4510) precoated with anti-IFNγ (BD Pharmingen 551881) at a concentration of 5 μg/ml in PBS. Peptides were added at a concentration of 100 nM to restimulate splenocytes overnight. After stimulation, plates were washed, blocked, and incubated with biotinylated anti-IFNγ (BD Pharmingen 551881) at a concentration of 2 μg/ml and streptavidin-AKP (BD Pharmingen 554065) at a dilution of 1:1000. After 60 minutes, plates were washed and developed with 3-amino-9-ethylcarbazole (AEC, Sigma-Aldrich, A6926). IFNγ-secreting cells were scanned and enumerated using an Immunospot Analyzer ELISpot reader (CTL). All samples were run in triplicate. The following peptides were synthesized by New England Peptide: lmo2185_293-312 […] (SEQ ID NO: 14986), lmo0202_189-204 […] (SEQ ID NO: 14981), lmo0135_150-169 […] (SEQ ID NO: 14997), lmo2558_533-553 […] (SEQ ID NO: 14984), lmo2360_289-306 […] (SEQ ID NO: 15009), lmo0186_285-303 […] (SEQ ID NO: 15005), lmo0582a_26-46 […] (SEQ ID NO: 15012), lmo0582b_12-25 […] (SEQ ID NO: 15013). To calculate the frequency of CD4^+ cells in each splenocyte sample from infected mice, an aliquot of cells from each mouse was stained for flow cytometric analysis. 1×10^6 cells were incubated with 2.4G2 Mouse Fc block in PBS/FBS (BD Pharmingen, 553142) for 20 min at 4° C. […] Fluorescently labeled cells were acquired on the FACSVerse flow cytometer (BD Biosciences) and analyzed using FlowJo Analysis Software (Tree Star).

Substance | T cell response (IFN-γ ELISPOT)
ADFRYVFDTAKATAASSYPG (Listeria sp) [SEQ ID NO: 14986, Listeria peptide from lmo2185] | Robust responses
APGQETQHYYGLPVADSAIDR (Listeria sp) [SEQ ID NO: 14984, Listeria peptide from lmo2558 (ami)] | Robust responses
WNEKYAQAYPNVSAKI (Listeria sp) [SEQ ID NO: 14981, Listeria peptide from lmo0202 (hly) (LLO)] | Robust responses
VDDTTVKFTLPTVAPAFENT (Listeria sp) [SEQ ID NO: 14997, Listeria peptide from lmo0135] | Robust responses

Reference: patent US12374423B2, “Systems and methods for MHC class II epitope prediction” (priority 2017, dated 2025)
